Here are results for 41 sequences from the supplement of paper PMC7877785.

± gives the uncertainty stated by the source.

This data set is described as follows: self-splicing fitness, log relative to wild type (ln ratio); higher = more splicing; Tetrahymena group I intron in knt gene, E. coli kanamycin selection, DiMSum; sequences stand for … in CUCUCU…GGAGGGAAAAGUUAUCAGGCAUGCACCUGGUAGCUAGUCUUUAAACCAAUAGAUUGCAUCGGUUUAAAAGGCAAGACCGUCAAAUUGCGGGAAAGGGGUCAACAGCCGUUCAGUACCAAGUCUCAGGGGAAACUUUGAGAUGGCCUUGCAAAGGGUAUGGUAAUAAGCUGACGGACAUGGUCCUAACCACGCAGCCAAGUCCUAAGUCAACAGAUCUUCUGUUGAUAUGGAUGCAGUUCACAGACUAAAUGUCGGUCGGGGAAGAUGUAUUCUUCUCAUAAGAUAUAGUCGGACCUCUCCUUAAUGGGAGCUAGCGGAUGAAGUGAUGCAACACUGGAGCCGCUGGGAACUAAUUUGUAUGCGAAAGUAUAUUGAUUAGUUUUGGAGUACUCGUGGUCG
The gist of the method: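 Pooled colonies went to amplicon sequencing on an Illumina HiSeq 2500 after six replicate transformations. The plates were LB agar with 100 μg/mL carbenicillin, 50 μM IPTG and 0.2% rhamnose, with or without 25 μg/mL kanamycin, incubated overnight at 37°C or 30°C. The E. coli BL21(DE3) library had all eight P1ex-region intron nucleotides randomised, the intron placed in the knt kanamycin-resistance gene on pET-22b(+). DiMSum fitness is the error-weighted combination of replicate fold changes, kanamycin against none, normalised to wild type.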

With CACGAGCAAUAUUACGAGAC, the “self-splicing fitness (ln)” value by setting is: (30 °C) -2.99 ± 0.2; (37 °C) -1.89 ± 0.3. UCCUAGCAAUAUUACGAAAG: for the setting “30 °C”, the “self-splicing fitness (ln)” value is -2.86 ± 0.33. Take GCCCAGCAAUAUUACGCGCU: the “self-splicing fitness (ln)” value (30 °C) was -3.29 ± 0.18 and the “self-splicing fitness (ln)” value (37 °C) was -2.41 ± 0.2. The corresponding values for CGAUAGCAAUAUUACGACUG are -0.203 ± 0.083 and 0.803 ± 0.1. Take AAGAAGCAAUAUUACGAUCC: the “self-splicing fitness (ln)” value reads like this: (30 °C) -0.553 ± 0.14; (37 °C) -0.745 ± 0.18. The corresponding values for CCGGAGCAAUAUUACGUUCG are -4.36 ± 0.46 and -1.92 ± 0.46. Turning to GAUCAGCAAUAUUACGUAAA, the “self-splicing fitness (ln)” value runs as follows: (30 °C) -0.582 ± 0.079; (37 °C) 0.169 ± 0.099. With GGAAAGCAAUAUUACGCCAG, the “self-splicing fitness (ln)” value (37 °C) was -0.912 ± 0.35.

Regarding GUGGAGCAAUAUUACGCCGA, the “self-splicing fitness (ln)” value reads like this: (30 °C) -3.41 ± 0.43; (37 °C) -1.25 ± 0.28.

GCUUAGCAAUAUUACGCGGU: the “self-splicing fitness (ln)” value by setting is: (30 °C) -3.52 ± 0.2; (37 °C) -3.42 ± 0.28. Taken in the same sequence, the figures for ACUCAGCAAUAUUACGGAAU were -1.75 ± 0.084 and -0.549 ± 0.11. Taken in the same sequence, the figures for AUACAGCAAUAUUACGGUUA were -0.52 ± 0.069 and -0.372 ± 0.071. The corresponding values for ACCCAGCAAUAUUACGCGUC are -2.16 ± 0.088 and -1.42 ± 0.11. With GCGAAGCAAUAUUACGCUAA, the “self-splicing fitness (ln)” value reads like this: (30 °C) -2.54 ± 0.28; (37 °C) -2.21 ± 0.2. The corresponding values for ACCAAGCAAUAUUACGGGGA are -2.16 ± 0.09 and -1.85 ± 0.098. For UAUUAGCAAUAUUACGAUAG, the “self-splicing fitness (ln)” value (30 °C) was -0.949 ± 0.16 and the “self-splicing fitness (ln)” value (37 °C) was -0.79 ± 0.17. Regarding UUUCAGCAAUAUUACGCCCC, the “self-splicing fitness (ln)” value (30 °C) was -1.57 ± 0.3. Take GGUAAGCAAUAUUACGCCCU: the “self-splicing fitness (ln)” value runs as follows: (30 °C) -1.86 ± 0.28; (37 °C) -1.35 ± 0.28. The corresponding values for UUCCAGCAAUAUUACGAUGC are -3.4 ± 0.23 and -2.79 ± 0.23. The corresponding values for CACUAGCAAUAUUACGGUUU are -1.56 ± 0.077 and -0.979 ± 0.093. Turning to CCGGAGCAAUAUUACGCCAU, the “self-splicing fitness (ln)” value (37 °C) was -2.18 ± 0.35.

Turning to CAAUAGCAAUAUUACGUUAA, the “self-splicing fitness (ln)” value was -2.95 ± 0.18 (30 °C) and -2.8 ± 0.23 (37 °C). With UUAUAGCAAUAUUACGGCCC, the “self-splicing fitness (ln)” value (37 °C) is -0.921 ± 0.39. For the sequence CAUAAGCAAUAUUACGGUGA, the “self-splicing fitness (ln)” value (30 °C) was -3.65 ± 0.27 and the “self-splicing fitness (ln)” value (37 °C) was -2.36 ± 0.23. As to UAUUAGCAAUAUUACGUCCA, the “self-splicing fitness (ln)” value by setting is: (30 °C) -0.691 ± 0.11; (37 °C) -0.00937 ± 0.15. For CAGUAGCAAUAUUACGCGAC, the “self-splicing fitness (ln)” value (37 °C) is -1 ± 0.32.

Turning to AAUGAGCAAUAUUACGACUC, the “self-splicing fitness (ln)” value was -1.05 ± 0.13 (30 °C) and -0.904 ± 0.15 (37 °C). The corresponding values for UACUAGCAAUAUUACGGGAC are -3.54 ± 0.17 and -2.72 ± 0.16.

On to UACGAGCAAUAUUACGAGCA, for which the “self-splicing fitness (ln)” value runs as follows: (30 °C) -2.48 ± 0.16; (37 °C) -0.109 ± 0.12. The corresponding values for UGAUAGCAAUAUUACGGUAG are -2.38 ± 0.2 and -1.12 ± 0.17. Turning to UGCUAGCAAUAUUACGAUCC, the “self-splicing fitness (ln)” value (30 °C) was -0.317 ± 0.41. Take GUGCAGCAAUAUUACGCUCA: the “self-splicing fitness (ln)” value was -1.31 ± 0.1 (30 °C) and -0.388 ± 0.11 (37 °C). The corresponding values for CCGAAGCAAUAUUACGACUG are -1.06 ± 0.12 and 0.835 ± 0.17.

CCAGAGCAAUAUUACGAAGC: the “self-splicing fitness (ln)” value (30 °C) was -3.1 ± 0.24 and the “self-splicing fitness (ln)” value (37 °C) is -2.71 ± 0.27. Taken in the same sequence, the figures for CUAGAGCAAUAUUACGGCGU were -4.02 ± 0.26 and -0.833 ± 0.16. Taken in the same sequence, the figures for CAGGAGCAAUAUUACGUGUU were -3.24 ± 0.17 and -2.55 ± 0.27. The corresponding values for AGGAAGCAAUAUUACGUUGU are -3.98 ± 0.18 and -2.82 ± 0.15. Take CCCUAGCAAUAUUACGGUCA: the “self-splicing fitness (ln)” value is -2.57 ± 0.18 (30 °C) and -2.65 ± 0.28 (37 °C). CUGCAGCAAUAUUACGUUCC: where the note is “37 °C”, the “self-splicing fitness (ln)” value was -1.74 ± 0.35. Turning to GCUGAGCAAUAUUACGAAAC, the “self-splicing fitness (ln)” value by setting is: (30 °C) -2.42 ± 0.17; (37 °C) 0.274 ± 0.14. Taken in the same sequence, the figures for CUUAAGCAAUAUUACGUAGG were -2.58 ± 0.1 and -1.35 ± 0.14.
